From US20160331821A1 (AGENUS, published 2016)
Square brackets hold non-standard residues; d marks the D form. Ends that are not written are not given here. pS = N[C@@H](COP(=O)(O)O)C(=O)O

Legend:
[1] = biological target: T1, recombinant human Hsc70 (Genbank Accession No. P11142.1) (human, UniProt P11142 1-646, limits assumed); assay: size exclusion chromatography after incubating peptide with Hsc70 in PBS, 37 C, 1 h, 4:1 molar excess peptide:Hsc70
T1 construct: also called rhHsc70; rh-Hsc70
Protocol: Four peptides (Table 9) containing a phosphorylated serine residue were synthesized to 95% purity (GenScript, Cambridge, Mass.). […] These peptides were individually incubated with Hsc70 in PBS at 37° C. for 1 hour at a 4:1 molar excess (peptide:Hsc70) to form non-covalent Hsc70-peptide complexes. After incubation, the complexes were analyzed by SEC to quantify the proportion of Hsc70 molecules loaded with peptide.

[2] = biological target: T2, recombinant human Hsc70 (Genbank Accession No. P11142.1) (Biomay AG) (human, UniProt P11142 1-646, limits assumed); assay: size exclusion chromatography; Hsc70:peptide molar ratio 1:2, same result at 1:5
T2 construct: Resolves on SEC as a monomeric and an oligomeric form; also called rhHsc70; rh-Hsc70
T2 sequence (P11142 whole entry, one chain of several): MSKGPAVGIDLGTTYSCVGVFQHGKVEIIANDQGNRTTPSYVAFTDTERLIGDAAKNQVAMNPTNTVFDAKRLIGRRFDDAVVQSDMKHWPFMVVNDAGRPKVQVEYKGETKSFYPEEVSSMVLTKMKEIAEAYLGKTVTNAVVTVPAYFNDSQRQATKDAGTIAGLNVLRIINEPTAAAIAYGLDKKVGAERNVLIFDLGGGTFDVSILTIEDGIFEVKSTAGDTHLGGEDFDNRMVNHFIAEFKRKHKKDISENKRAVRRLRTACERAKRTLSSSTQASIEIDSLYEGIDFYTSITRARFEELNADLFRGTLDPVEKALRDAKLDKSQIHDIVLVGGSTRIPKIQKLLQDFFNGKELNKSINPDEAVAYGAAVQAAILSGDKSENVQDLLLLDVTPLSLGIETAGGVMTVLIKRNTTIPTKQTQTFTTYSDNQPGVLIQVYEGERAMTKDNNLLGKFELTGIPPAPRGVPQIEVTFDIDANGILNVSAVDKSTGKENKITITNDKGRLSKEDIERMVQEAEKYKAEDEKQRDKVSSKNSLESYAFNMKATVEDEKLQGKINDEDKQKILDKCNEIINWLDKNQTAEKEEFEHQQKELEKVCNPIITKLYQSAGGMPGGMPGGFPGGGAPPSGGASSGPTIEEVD
Protocol: Standard size exclusion chromatography was carried out using 7 μM of recombinant human Hsc70 (Genbank Accession No. P11142.1) (Biomay AG) in a reaction buffer containing 20 mM HEPES and 200 mM KCL in a final volume of 50 μl. Reactions were incubated at 37° C. for 1 or 2 hours and centrifuged 2 min at 13000 RPM. Reaction products (10 μg) were resolved on a TSKgel SuperSW3000, 4 μm particle size, 25 nm pore size gel filtration chromatography column (Tosoh Bioscience). […] The percentage of Hsc70 complexed with peptide in each reaction mixture was calculated by measuring the surface area of the appropriate peak.
The comparative effect of placing the high affinity Hsc70 binding sequence at the N- and C-terminus of the ovalbumin peptide, linked via the FFRK (SEQ ID NO:447) linker in both cases, was also tested. […] The sequence of the test peptide with the C-terminal high affinity Hsc70 binding sequence was […] (SEQ ID NO:449), and the sequence of the test peptide with N-terminal high affinity Hsc70 binding sequence was […] (SEQ ID NO:450).

T1 sequence (P11142 whole entry, one chain of several): as above

RVA[pS]PTSGVFFRKNLLRLTG
Percentage of Hsc70 loaded with peptide [1]: 75%

NLLRLTGFFRKGLLG[pS]PVRA
Percentage of Hsc70 loaded with peptide [1]: 41%

NLLRLTGFFRKRVA[pS]PTSGV
Percentage of Hsc70 loaded with peptide [1]: 34%

GLLG[pS]PVRAFFRKNLLRLTG
Percentage of Hsc70 loaded with peptide [1]: 74%

NLLRLTGFFRKSIINFEKL
binding result [2]: binds
